Data set [1] concerns the molecule itself. Put plainly: SEC; gel filtration of recombinant HexaHis BANF1, absorbance at 280 nm against elution volume; column calibrated with carbonic anhydrase (29 kDa) and myoglobin (17 kDa). For orientation: SEC sorts molecules by how far they enter the pores of the column.
Data set [2] concerns the target T1, BANF1 WT (UniProt O75531 1-89).
T1 sequence: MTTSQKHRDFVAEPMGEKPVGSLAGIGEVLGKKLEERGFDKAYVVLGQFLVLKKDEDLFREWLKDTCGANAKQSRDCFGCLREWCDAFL
Put plainly: EMSA; 0-1 uM protein, 10 nM DNA, 30 min 4 C; 10 mM Tris-HCl pH 7.0, 20 mM NaCl, 100 ng/mL BSA, 5 mM DTT, 30 min at 4 C; 7% PAGE 0.5x TBE at 4 C (short DNA) or 0.6% agarose 1x TBE (plasmid). Conditions: protein: recombinant; tags: N-terminal His6; label: 5'-FAM on strand 1; blunt. Background: In EMSA bound probe runs differently from free probe, usually more slowly.

Substitutions are numbered along the chain they refer to. Names and notes keep the numbering of the source.

The record followed here is paper PMC4266902, “Néstor-Guillermo Progeria Syndrome: a biochemical insight into Barrier-to-Autointegration Factor 1, alanine 12 threonine mutation” (BMC Molecular Biology, 2014).

In general, stoichiometry N refers to a count of units in the complex or per binding partner.

B1: recombinant HexaHis-tagged wild type BANF1 (Barrier-to-Autointegration Factor 1) (natural protein, human, UniProt O75531 1-89, looked up)
chain: T1 sequence
notes: Barrier-to-Autointegration Factor 1 (BANF1, BAF1), human, 89 amino acid residues; BANF1 CDS sub-cloned into pEX-N-His (Origene); also called BANF1 WT; WT BANF1; not shown: His6, N-terminal, kept
Turning to B1, the “stoichiometry N” value in data set [1] is 2.

B2: recombinant HexaHis-tagged A12T BANF1 (natural protein, human, UniProt O75531 1-89, looked up)
chain: T1 sequence with A12T
notes: Barrier-to-Autointegration Factor 1 (BANF1, BAF1), human, 89 amino acid residues; BANF1 CDS in pEX-N-His (Origene) with the patient mutation c.34G>A [p.A12T] made by site-directed mutagenesis; A12T is the mutation found in patients with Nestor-Guillermo Progeria Syndrome; also called BANF1 A12T; A12T mutant; not shown: His6, N-terminal, kept
Regarding B2, the “stoichiometry N” value in data set [1] is 2.

B3: FAM-labelled short dsDNA (dsDNA)
DNA 1: CTCTCCCTTCGCTCCTTTCCTCT
DNA 2: AGAGGAAAGGAGCGAAGGGAGAG
Turning to B3, the binding result in data set [2] is “binds”.
